Data from publication PMC6748581.

Legend:
Assay in all cases: SPR
[1] = biological target: Anti-IL-13 IgG1 ΔK-P221 IgA2m1 Fc Dimer (human) (UniProt P01591)
[2] = biological target: Anti-IL-13 IgG1 ΔK-C242 IgA2m1 Fc Dimer (human) (UniProt P01591)
[3] = biological target: anti-mIL-13 IgA1 Monomer (human)
[4] = biological target: anti-mIL-13 IgA1 Dimer (human) (UniProt P01591)
[5] = biological target: anti-mIL-13 IgA2m1 Monomer (human)
[6] = biological target: anti-mIL-13 IgA2m2 Dimer (human) (UniProt P01591)
[7] = biological target: anti-mIL-13 IgA2m2 Monomer (human)
[8] = biological target: anti-mIL-13 IgA2m1 Dimer (human) (UniProt P01591)
[9] = biological target: anti-mIL-13 IgA2m1 P221R Dimer (human) (UniProt P01591)
[10] = biological target: anti-mIL-13 IgA2m2 Tetramer (human) (UniProt P01591)
[11] = biological target: anti-mIL-13 IgA2m1 P221R Monomer (human)
[12] = biological target: anti-mIL-13 human IgG1 (human)
[13] = biological target: Anti-HER2 IgA2m2 Polymer Aglycosylated (human) (UniProt P01591)

Row | Molecule | Kd [1] [nM] | Kd [2] [nM] | Kd [3] [nM] | Kd [4] [nM] | Kd [5] [nM] | Kd [6] [nM] | Kd [7] [nM] | Kd [8] [nM] | Kd [9] [nM] | Kd [10] [nM] | Kd [11] [nM] | Kd [12] [nM] | Kd [13] [nM]
1 | human Fc alpha receptor 1 (from UniProt P24071) | 1070 | 938 | 425 | 369 | 429 | 597 | 455 | 499 | 462 | 533 | 443 |  | 
2 | human FcRn co-expressed with human beta-2 microglobulin (from UniProt P55899;P61769) (complex) | 8400 | 9900 |  |  |  |  |  |  |  |  |  | 9800 | 
3 | human polymeric immunoglobulin receptor (from UniProt P01833) | 7.67 | 4.41 |  | 8.8 |  | 13.9 |  | 5.05 | 15.5 | 1.93 |  |  | 0.72
4 | mouse FcRn co-expressed with mouse beta-2 microglobulin (from UniProt Q61559;P01887) (complex) | 6800 | 7400 |  |  |  |  |  |  |  |  |  | 7800 | 
5 | mouse polymeric immunoglobulin receptor (from UniProt O70570) |  |  |  |  |  |  |  |  |  |  |  |  | 0.55
6 | mouse polymeric immunoglobulin receptor (receptor) KSPIFGPQEVSSIEGDSVSITCYYPDTSVNRHTRKYWCRQGASGMCTTLISSNGYLSKEYSGRANLINFPENNTFVINIEQLTQDDTGSYKCGLGTSNRGLSFDVSLEVSQVPELPSDTHVYTKDIGRNVTIECPFKRENAPSKKSLCKKTNQSCELVIDSTEKVNPSYIGRAKLFMKGTDLTVFYVNISHLTHNDAGLYICQAGEGPSADKKNVDLQVLAPEPELLYKDLRSSVTFECDLGREVANEAKYLCRMNKETCDVIINTLGKRDPDFEGRILITPKDDNGRFSVLITGLRKEDAGHYQCGAHSSGLPQEGWPIQTWQLFVNEESTIPNRRSVVKGVTGGSVAIACPYNPKESSSLKYWCRWEGDGNGHCPVLVGTQAQVQEEYEGRLALFDQPGNGTYTVILNQLTTEDAGFYWCLTNGDSRWRTTIELQVAEATREPNLEVTPQNATAVLGETFTVSCHYPCKFYSQEKYWCKWSNKGCHILPSHDEGARQSSVSCDQSSQLVSMTLNPVSKEDEGWYWCGVKQGQTYGETTAIYIAVEERTRGSSHVNPTDANARAKVALEEEVVDSSISEKENKAIPNPGPFANEREIQNVGDQAQENRASGDAGSADGQSRSSSSK | 3.32 | 3.32 |  | 2.66 |  | 2.45 |  | 2.54 | 5.59 | 0.69 |  |  | 
